According to US8389468B2, “Approach to the treatment of compartment syndrome” (Lantmannen AS-Faktor AB, priority 2006, dated 2013):

System: HSV-1 infected rats
Test: Intracranial pressure (ICP) and neurological symptoms in HSV-1 infected rats, fibre optic pressure sensor
Type: in vivo, rat
Settings: HSV-1 infected rat treated twice daily, day 5
Protocol: Adult rats were infected by having a solution of the Herpes Simplex virus type 1 (HSV-1; strain 2762, batch 041028; 1.7×10^7 PFU/mL; 25 pL) instilled in their right nostril. One group of animals (n=6) received 10 min after the infection 25 pL (10 pg) of AF-16 in their right nostril, and had thereafter the same dose of AF-16 instilled twice daily, every morning at 8 AM and every night at 6 PM, until the experiment was terminated on day 6. Additional HSV-1 infected rats (n=6) received in the nose at the same time intervals 25 pL of the vehicle, phosphate buffered saline (PBS). On day 6, the animals were anaesthetized, a surgical incision made through the skin on the head, and the skull bone freed from periostium and connective tissue. A hole with a diameter of about 1 mm was drilled through the right parietal bone and a miniature pressure sensor inserted 3-5 mm into the brain or into the lateral ventricle. A fibre optic pressure measure system (Samba System 3200 & Samba Preclin 420 sensor; Samba Sensors AB, V Frolunda, Sweden) with a very small diameter, ve. 0.4 mm, was used. […] HSV-1 infected rats treated with just the vehicle were measured to have as high pressures as up to 30-45 mm Hg (FIG. 2a), considerably affect the animals as reflected by symptoms of neurological dysfunction of increasing severity. In contrast, HSV-1 infected rats treated from the time of infection with AF-16 twice daily had almost normal ICP, 8-14 mm Hg (FIG. 2 b).
Additional HSV-1 infected animals with distinctly overt symptoms were as well treated with 10 or 25 pg AF-16 intranasally, starting on day 5, 6 or 7, i.e. after having had the vehicle during the previous days. […] Thus, non of the acutely AF-16 treated rats had any persistent signs of deleterious ICP and thus no CS developed. […] That is seen in the mentioned figure (FIG. 5 a) as there is no red staining of the right half on the figure. However, treatment with 10 or 25 pg AF-16 intranasally turned the picture in HSV-1 infected rats as in the normal, non-infected ones. […] Thereby the outflow of CSF was restored and the ICP turned normal.

B1: AF: antisecretory factor; antisecretory proteins and peptides; in FIG. 2b probably AF-16 (protein, UniProt P55036 1-377, looked up)
26S proteasome non-ATPase …: MVLESTMVCVDNSEYMRNGDFLPTRLQAQQDAVNIVCHSKTRSNPENNVGLITLANDCEVLTTLTPDTGRILSKLHTVQPKGKITFCTGIRVAHLALKHRQGKNHKMRIIAFVGSPVEDNEKDLVKLAKRLKKEKVNVDIINFGEEEVNTEKLTAFVNTLNGKDGTGSHLVTVPPGPSLADALISSPILAGEGGAMLGLGASDFEFGVDPSADPELALALRVSMEEQRQRQEEEARRAAAASAAEAGIATTGTEDSDDALLKMTISQQEFGRTGLPDLSSMTEEEQIAYAMQMSLQGAEFGQAESADIDASSAMDTSEPAKEEDDYDVMQDPEFLQSVLENLPGVDPNNEAIRNAMGSLASQATKDGKKDKKEEDKK
ICP (FIG. 2b): almost turned the ICP back to normal levels
